Measured values as given in the supplement of paper PMC5998384.

What was measured:
HeLa Kyoto [1] = test: solubility in G1/S (NP-40 vs SDS abundance) (log2 ratio); higher = more soluble; conditions: cell cycle stage: G1/S
HeLa Kyoto [2] = test: melting temperature (median over replicates), in situ; higher = more thermally stable
HeLa Kyoto [3] = test: solubility change mitosis vs G1/S (difference of NP-40 vs SDS log2 ratios) (log2 ratio difference); higher = more soluble in mitosis
HeLa Kyoto [4] = test: thermal stability score vs G1/S (z-score of summed log2 fold changes over temperatures); higher = more thermally stable than in G1/S
[5] = cell cycle stage: early G1 (4.5 h after nocodazole release)
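For melting temperature (median over replicates), in situ in this document: HeLa Kyoto cells synchronized by double thymidine or nocodazole block, proteins quantified by TMT10plex mass spectrometry, three independent biological replicates.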
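For solubility change mitosis vs G1/S (difference of NP-40 vs SDS log2 ratios) in this document: synchronized HeLa Kyoto cells (double thymidine block for G1/S, nocodazole release for mitosis), protein amounts in NP-40 versus SDS lysates quantified by mass spectrometry, three biological replicates.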
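For solubility in G1/S (NP-40 vs SDS abundance) in this document: HeLa Kyoto cells arrested at G1/S by double thymidine block, proteins quantified by TMT10plex mass spectrometry in mild NP-40 versus SDS extracts, three biological replicates.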
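For thermal stability score vs G1/S (z-score of summed log2 fold changes over temperatures) in this document: synchronized HeLa Kyoto cells, proteins quantified by TMT10plex mass spectrometry, three biological replicates, mitosis taken 0.5 h after nocodazole release, G1/S directly after double thymidine block.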

Row | Sequence | solubility in G1/S (log2) (HeLa Kyoto [1]) | melting temperature (HeLa Kyoto [2]; cell cycle stage: G1/S) [°C] | solubility change mitosis (log2) (HeLa Kyoto [3]) | thermal stability score (HeLa Kyoto [4]; [5]) | thermal stability score (HeLa Kyoto [4]; cell cycle stage: mitosis) | melting temperature (HeLa Kyoto [2]; cell cycle stage: mitosis) [°C]
1 | MRCALALSALLLLLSTPPLLPSSPSPSPSPSQNATQTTTDSSNKTAPTPASSVTIMATDTAQQSTVPTSKANEILASVKATTLGVSSDSPGTTTLAQQVSGPVNTTVARGGGSGNPTTTIESPKSTKSADTTTVATSTATAKPNTTSSQNGAEDTTNSGGKSSHSVTTDLTSTKAEHLTTPHPTSPLSPRQPTSTHPVATPTSSGHDHLMKISSSSSTVAIPGYTFTSPGMTTTLLETVFHHVSQAGLELLTSGDLPTLASQSAGITASSVISQRTQQTSSQMPASSTAPSSQETVQPTSPATALRTPTLPETMSSSPTAASTTHRYPKTPSPTVAHESNWAKCEDLETQTQSEKQLVLNLTGNTLCAGGASDEKLISLICRAVKATFNPAQDKCGIRLASVPGSQTVVVKEITIHTKLPAKDVYERLKDKWDELKEAGVSDMKLGDQGPPEEAEDRFSMPLIITIVCMASFLLLVAALYGCCHQRLSQRKDQQRLTEELQTVENGYHDNPTLEVMETSSEMQEKKVVSLNGELGDSWIVPLDNLTKDDLDEEEDTHL [PODXL] | -0.214 | 58.6 | -0.092 | -3.38 | -2.15 | 
2 | MTSMASLFSFTSPAVKRLLGWKQGDEEEKWAEKAVDALVKKLKKKKGAMEELEKALSSPGQPSKCVTIPRSLDGRLQVSHRKGLPHVIYCRVWRWPDLQSHHELKPLDICEFPFGSKQKEVCINPYHYKRVESPVLPPVLVPRHNEFNPQHSLLVQFRNLSHNEPHMPQNATFPDSFHQPNNTPFPLSPNSPYPPSPASSTYPNSPASSGPGSPFQLPADTPPPAYMPPDDQMGQDNSQPMDTSNNMIPQIMPSISSRDVQPVAYEEPKHWCSIVYYELNNRVGEAFHASSTSVLVDGFTDPSNNKSRFCLGLLSNVNRNSTIENTRRHIGKGVHLYYVGGEVYAECLSDSSIFVQSRNCNFHHGFHPTTVCKIPSSCSLKIFNNQEFAQLLAQSVNHGFEAVYELTKMCTIRMSFVKGWGAEYHRQDVTSTPCWIEIHLHGPLQWLDKVLTQMGSPLNPISSVS [SMAD5] | -0.0752 | 50.3 | -0.0922 | 0.616 | 0.53 | 50
3 | MAAVWQQVLAVDARYNAYRTPTFPQFRTQYIRRRSQLLRENAKAGHPPALRRQYLRLRGQLLGQRYGPLSEPGSARAYSNSIVRSSRTTLDRMEDFEDDPRALGARGHRRSVSRGSYQLQAQMNRAVYEDRPPGSVVPTSAAEASRAMAGDTSLSENYAFAGMYHVFDQHVDEAVPRVRFANDDRHRLACCSLDGSISLCQLVPAPPTVLRVLRGHTRGVSDFAWSLSNDILVSTSLDATMRIWASEDGRCIREIPDPDSAELLCCTFQPVNNNLTVVGNAKHNVHVMNISTGKKVKGGSSKLTGRVLALSFDAPGRLLWAGDDRGSVFSFLFDMATGKLTKAKRLVVHEGSPVTSISARSWVSREARDPSLLINACLNKLLLYRVVDNEGTLQLKRSFPIEQSSHPVRSIFCPLMSFRQGACVVTGSEDMCVHFFDVERAAKAAVNKLQGHSAPVLDVSFNCDESLLASSDASGMVIVWRREQK [WDR13] | 0.0237 | 53.2 | -0.174 | 0.118 | 0.204 | 53
4 | MAALVRPARFVVRPLLQVVQAWDLDARRWVRALRRSPVKVVFPSGEVVEQKRAPGKQPRKAPSEASAQEQREKQPLEESASRAPSTWEESGLRYDKAYPGDRRLSSVMTIVKSRPFREKQGKILLEGRRLISDALKAGAVPKMFFFSRLEYLKELPVDKLKGVSLIKVKFEDIKDWSDLVTPQGIMGIFAKPDHVKMTYPKTQLQHSLPLLLICDNLRDPGNLGTILRSAAGAGCSKVLLTKGCVDAWEPKVLRAGMGAHFRMPIINNLEWETVPNYLPPDTRVYVADNCGLYAQAEMSNKASDHGWVCDQRVMKFHKYEEEEDVETGASQDWLPHVEVQSYDSDWTEAPAAVVIGGETYGVSLESLQLAESTGGKRLLIPVVPGVDSLNSAMAASILLFEGKRQLRGRAEDLSRDRSYH [RNMTL1] | -0.452 | 53.2 | 0.163 | -0.281 | -1.34 | 52.1
